Measurements taken from article PMC5121451, “NADP-Dependent Aldehyde Dehydrogenase from Archaeon Pyrobaculum sp.1860: Structural and Functional Features” (Archaea, 2016).
Each block holds one molecule with its values, some of them ahead of it.

What was measured:
AlDHPyr1147 [1] = target: T1, AlDHPyr1147 (Pyrobaculum ferrireducens, UniProt G7VCG0); assay: spectrofluorimetric titration of apo form; format: binding
T1 construct: gene P186_1147; homotetramer
T1 sequence (G7VCG0 1-491): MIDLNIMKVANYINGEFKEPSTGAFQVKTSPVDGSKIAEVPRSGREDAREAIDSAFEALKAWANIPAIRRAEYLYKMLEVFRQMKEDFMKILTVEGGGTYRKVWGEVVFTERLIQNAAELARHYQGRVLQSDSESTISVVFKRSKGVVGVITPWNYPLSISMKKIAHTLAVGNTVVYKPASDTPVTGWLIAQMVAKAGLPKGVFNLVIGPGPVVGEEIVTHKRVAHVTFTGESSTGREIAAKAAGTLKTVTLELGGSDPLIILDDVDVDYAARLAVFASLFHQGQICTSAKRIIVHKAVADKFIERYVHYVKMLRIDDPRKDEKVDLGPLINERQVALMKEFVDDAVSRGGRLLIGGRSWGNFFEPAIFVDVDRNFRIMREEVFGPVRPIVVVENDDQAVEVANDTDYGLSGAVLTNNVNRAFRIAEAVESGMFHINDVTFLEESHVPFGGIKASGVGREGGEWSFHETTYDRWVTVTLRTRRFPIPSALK
Excerpt: spectrofluorimetric titration of apo form on AlDHPyr1147 | spectrofluorimetric titration of the apo form of AlDHPyr1147 with NADP+

AlDHPyr1147 [2] = target: T1, AlDHPyr1147; assay: spectrophotometric NADPH formation at […] nm; format: biochemical; conditions: 0.084 μM enzyme, 0.3 mM NADP+, 9 mM isobutyraldehyde, pH 8.8, 60 °C
[3] = target: NADP-dependent aldehyde dehydrogenase AlDHPyr1147 from archaeon Pyrobaculum sp.1860 (Pyrobaculum sp.1860); assay: SEC; gel filtration of the apo form (coenzyme removed by heating at 85°C for 10-15 min), at room temperature
[4] = target: NADP-dependent aldehyde dehydrogenase AlDHPyr1147 from archaeon Pyrobaculum sp.1860 (Pyrobaculum sp.1860); assay: SEC; gel filtration of AlDHPyr1147 as isolated (with bound coenzyme); analytical column 10/300 GL, 50 mM sodium pyrophosphate pH 8.8, 100 mM NaCl, 22°C
[5] = target: NADP-dependent aldehyde dehydrogenase AlDHPyr1147 from archaeon Pyrobaculum sp.1860 (Pyrobaculum sp.1860); assay: crystal structure; apo form, three binary complexes with coenzyme (Holo-1, Holo-2, Holo-3) and ternary complex with NADP+ and isobutyraldehyde; space group P2(1)2(1)2, eight subunits (two tetramers) per asymmetric unit
purified protein [6] = substrate: NC(=O)c1ccc[n+]([C@@H]2O[C@H](COP(=O)(O)OP(=O)(O)OC[C@H]3O[C@@H](n4cnc5c(N)ncnc54)[C@H](OP(=O)(O)O)[C@@H]3O)[C@@H](O)[C@H]2O)c1; assay: purified protein; format: biochemical, Pyrobaculum ferrireducens; conditions: 60 °C, isobutyraldehyde oxidation, standard assay, 50 mM sodium pyrophosphate pH 8.8, 100 mM NaCl, varied: cofactor
purified protein [7] = substrate: CCC=O; assay: purified protein; format: biochemical, Pyrobaculum ferrireducens; conditions: 0.3 mM NADP+, 50 mM sodium pyrophosphate pH 8.8, 100 mM NaCl, 60 °C
purified protein [8] = substrate: CC(C)C=O; assay: purified protein; conditions: 0.3 mM NADP+, 50 mM sodium pyrophosphate pH 8.8, 100 mM NaCl, 60 °C
purified protein [9] = substrate: O=C[C@H](O)CO; assay: purified protein; conditions: 0.3 mM NADP+, 50 mM sodium pyrophosphate pH 8.8, 100 mM NaCl, 60 °C

Kd (AlDHPyr1147 [1]): 600 ± 80 nM
Molecule: NC(=O)c1ccc[n+]([C@@H]2O[C@H](COP(=O)(O)OP(=O)(O)OC[C@H]3O[C@@H](n4cnc5c(N)ncnc54)[C@H](OP(=O)(O)O)[C@@H]3O)[C@@H](O)[C@H]2O)c1 [NADP+]

% decrease in activity at 0.08 mM (AlDHPyr1147 [2]): 20%
Molecule: NC(=O)C1=CN([C@@H]2O[C@H](COP(=O)(O)OP(=O)(O)OC[C@H]3O[C@@H](n4cnc5c(N)ncnc54)[C@H](OP(=O)(O)O)[C@@H]3O)[C@@H](O)[C@H]2O)C=CC1 [NADPH]

stoichiometry N [3]: 4
stoichiometry N [4]: 4
stoichiometry N [5]: 4
Molecule: NADP-dependent aldehyde dehydrogenase AlDHPyr1147 from archaeon Pyrobaculum sp.1860 (enzyme)

B1: AlDHPyr1147 (Pyrobaculum ferrireducens) (protein)
chain: MIDLNIMKVANYINGEFKEPSTGAFQVKTSPVDGSKIAEVPRSGREDAREAIDSAFEALKAWANIPAIRRAEYLYKMLEVFRQMKEDFMKILTVEGGGTYRKVWGEVVFTERLIQNAAELARHYQGRVLQSDSESTISVVFKRSKGVVGVITPWNYPLSISMKKIAHTLAVGNTVVYKPASDTPVTGWLIAQMVAKAGLPKGVFNLVIGPGPVVGEEIVTHKRVAHVTFTGESSTGREIAAKAAGTLKTVTLELGGSDPLIILDDVDVDYAARLAVFASLFHQGQICTSAKRIIVHKAVADKFIERYVHYVKMLRIDDPRKDEKVDLGPLINERQVALMKEFVDDAVSRGGRLLIGGRSWGNFFEPAIFVDVDRNFRIMREEVFGPVRPIVVVENDDQAVEVANDTDYGLSGAVLTNNVNRAFRIAEAVESGMFHINDVTFLEESHVPFGGIKASGVGREGGEWSFHETTYDRWVTVTLRTRRFPIPSALK
notes: homotetramer
Km (purified protein [6]): 20.9 ± 0.1 µM
Km (purified protein [7]): 0.021 ± 0.0025 M
kcat (purified protein [7]): 2.9 ± 0.16 s⁻¹
kcat/Km (purified protein [7]): 140 ± 30 M⁻¹ s⁻¹
Km (purified protein [8]): 0.020 ± 0.003 M
kcat (purified protein [8]): 4.1 s⁻¹
kcat/Km (purified protein [8]): 200 M⁻¹ s⁻¹
Km (purified protein [9]): 0.015 ± 0.006 M
kcat (purified protein [9]): 1.2 s⁻¹
kcat/Km (purified protein [9]): 80 M⁻¹ s⁻¹
